# Laboratory results: patent US20260209359A1 (NEXTERA, published 2026)
# B1: AM2 scFv displayed on phage (scFv)
# scFv: QVQLVQSGAEVKKPGASVKVSCKVSGYTLTELSMHWVRQAPGKGLEWMGGFDPEDGETIYAQKFQGRVTMTEDTSTDTAYMELSSLRSEDTAVYYCATDQGSSWGFYWGQGTLVTVSSKLSGSASAPKLEEGEFSEARVDIRVTQSPSSLSASVGDRVTITCRASQNIMWYLNWYQQKPGKAPKLLIYAASSLQSGVPSRFSGSGSGTDFTLTISSLQPEDFATYYCQQSYSTPYTFGQGTKLEIK
# notes: scFv on the surface of phage particles; also called AM2 phages
# Assays:
# [1] = biological target: T1, HLA-A*02:01 loaded with MAGE-A1 homologue peptide, soluble biotinylated (human, UniProt P04439 25-299 at identity 0.94); P61769 21-119, biotinylated); assay: pHLA capture ELISA: biotinylated pHLA on neutravidin, scFv-phage, anti-M13 antibody detection [cont.) C]
# T1 construct: HLA monomer as for m1
# [2] = biological target: T2, HLA-A*02:01 loaded with MAGE-B10 homologue peptide, soluble biotinylated (human, UniProt P04439 25-299 at identity 0.94); P61769 21-119, biotinylated); assay: as above
# T2 construct: HLA monomer as for m1
# [3] = biological target: T3, HLA-A*02:01 loaded with MAGE-A2 homologue peptide, soluble biotinylated (human, UniProt P04439 25-299 at identity 0.94); P61769 21-119, biotinylated); assay: as above
# T3 construct: HLA monomer as for m1
# [4] = biological target: T4, HLA-A*02:01 loaded with MAGE-A12 homologue peptide, soluble biotinylated (human, UniProt P04439 25-299 at identity 0.94); P61769 21-119, biotinylated); assay: as above
# T4 construct: HLA monomer as for m1
# [5] = biological target: T5, HLA-A*02:01 loaded with MAGE-A11 homologue peptide, soluble biotinylated (human, UniProt P04439 25-299 at identity 0.94); P61769 21-119, biotinylated); assay: as above
# T5 construct: HLA monomer as for m1
# [6] = biological target: T6, HLA-A*02:01 loaded with MAGE-A10 homologue peptide, soluble biotinylated (human, UniProt P04439 25-299 at identity 0.94); P61769 21-119, biotinylated); assay: as above
# T6 construct: HLA monomer as for m1
# [7] = biological target: T7, HLA-A*02:01 loaded with MAGE-B2 homologue peptide, soluble biotinylated (human, UniProt P04439 25-299 at identity 0.94); P61769 21-119, biotinylated); assay: as above
# T7 construct: HLA monomer as for m1
# [8] = biological target: T8, HLA-A*02:01 loaded with MAGE-B4 homologue peptide, soluble biotinylated (human, UniProt P04439 25-299 at identity 0.94); P61769 21-119, biotinylated); assay: as above
# T8 construct: HLA monomer as for m1
# [9] = biological target: T9, HLA-A*02:01 loaded with MAGE-B6 homologue peptide, soluble biotinylated (human, UniProt P04439 25-299 at identity 0.94); P61769 21-119, biotinylated); assay: as above
# T9 construct: HLA monomer as for m1
# [10] = biological target: T10, HLA-A*02:01 loaded with MAGE-A9 homologue peptide, soluble biotinylated (human, UniProt P04439 25-299 at identity 0.94); P61769 21-119, biotinylated); assay: as above
# T10 construct: HLA monomer as for m1
# [11] = biological target: T11, HLA-A*02:01 loaded with MAGE-C2 homologue peptide, soluble biotinylated (human, UniProt P04439 25-299 at identity 0.94); P61769 21-119, biotinylated); assay: as above
# T11 construct: HLA monomer as for m1
# [12] = biological target: T12, HLA-A*02:01 loaded with MAGE-A3 homologue peptide, soluble biotinylated (human, UniProt P04439 25-299 at identity 0.94); P61769 21-119, biotinylated); assay: as above
# T12 construct: HLA monomer as for m1
# [13] = biological target: T13, HLA-A*02:01 loaded with MAGE-A8 homologue peptide, soluble biotinylated (human, UniProt P04439 25-299 at identity 0.94); P61769 21-119, biotinylated); assay: pHLA phage capture ELISA
# T13 construct: HLA monomer as for m1
binder,measurement,setting,value
B1,binding result,[1],no binding (tested: 10^9 phages/well)
same,binding result,[2],no binding (tested: 10^9 phages/well)
same,binding result,[3],no binding (tested: 10^9 phages/well)
same,binding result,[4],no binding (tested: 10^9 phages/well)
same,binding result,[5],no binding (tested: 10^9 phages/well)
same,binding result,[6],no binding (tested: 10^9 phages/well)
same,binding result,[7],no binding (tested: 10^9 phages/well)
same,binding result,[8],no binding (tested: 10^9 phages/well)
same,binding result,[9],no binding (tested: 10^9 phages/well)
same,binding result,[10],no binding (tested: 10^9 phages/well)
same,binding result,[11],no binding (tested: 10^9 phages/well)
same,binding result,[12],no binding (tested: 10^9 phages/well)
same,fold reduction of binding as compared to binding to HLA-A*02:01/MAGE-A4^230-239,[13],≥ 2 fold
